Results: patent US9012398B2

Molecular target: human GLP-1 receptor (human) (UniProt P43220)

Row | Substance | GLP1cAMPma (3693) [EC50 (nM)] Mean Value [nM]
1 | N-ε^20-(2-(2-(2-(2-(2-(2-(17- carboxyheptadecanoylamino)ethoxy)ethoxy)acetylamino)ethoxy) ethoxy)acetyl[Aib^2,Lys^20,Ala^29,Ser(O-benzyl)^39]Exendin-4-(1-39)-amide (from UniProt P26349) (peptide) | 0.23
2 | N-ε^20-[2-(2-[2-(2-[2-(2-[4-(17-Carboxyheptadecanoylamino)-4(S)- carboxybutyrylamino]ethoxy)ethoxy]acetylamino)ethoxy]ethoxy)acetyl] [Aib^2;Gln^28,Lys^20]exendin-4(1-39)amide (from UniProt P26349) (peptide) | 0.1
3 | N-ε^20-[2-(2-[2-(2-[2-(2-[4-(17-Carboxyheptadecanoylamino)-4(S)- carboxybutyrylamino]ethoxy)ethoxy]acetylamino)ethoxy]ethoxy)acetyl] [Imidazoylpropionyl^1;Gin^28,Lys^20]exendin-4(1-39)amide (from UniProt P26349) (peptide) | 2.18
4 | N-ε^20-[2-(2-[2-(2-[2-(2-[4-(hexadecanoylamino)-4(S)- carboxybutyrylamino]ethoxy)ethoxy]acetylamino)ethoxy]ethoxy)acetyl] [Imidazoylpropionyl^1,Lys^20,Gln^28]Exendin-4-(1-39)-amide (from UniProt P26349) (peptide) | 0.042
5 | N-ε^20-[2-(2-[2-(2-[2-(2-[4-(octadecanoylamino)-4(S)- carboxybutyrylamino]ethoxy)ethoxy]acetylamino)ethoxy]ethoxy)acetyl] [Aib^2,Lys^20,Ala^29,Ser(O-benzyl)^39]Exendin-4-(1-39)-amide (from UniProt P26349) (peptide) | 0.006
6 | N-ε^20-[2-(2-[2-(2-[2-(2-[4-Octadecanoylamino-4(S)- carboxybutyrylamino]ethoxy)ethoxy]acetylamino)ethoxy]ethoxy)acetyl] [Arg^12,27,Gln^28,Leu^14,Lys^20 Exendin-4(1-39)amide (from UniProt P26349) (peptide) | 0.044
7 | N-ε^20-[2-(2-[2-(2-[2-(2-[4-hexadecanoylamino-4(S)- carboxybutyrylamino]ethoxy)ethoxy]acetylamino)ethoxy]ethoxy)acetyl] [Arg^12,27,28,Leu^14,Lys^20]Exendin-4(1-39)amide (from UniProt P26349) (peptide) | 0.027
8 | N-ε^20-{2-(2-(2-(2-[2-(2-(4-(hexadecanoylamino)-4- carboxybutyrylamino)ethoxy)ethoxy]acetyl)ethoxy)ethoxy)acetyl)}- [Gln^12,27,Leu^14,Lys^20,Gln^28]Exendin-4-amide (from UniProt P26349) (peptide) | 0.027
9 | N-ε^20-{2-(2-(2-(2-[2-(2-(4-(hexadecanoylamino)-4- carboxybutyrylamino)ethoxy)ethoxy]acetylamino)ethoxy)ethoxy) acetyl)}-[Gln^28,Lys^20]Exendin-4-amide (from UniProt P26349) (peptide) | 0.033
10 | N-ε^20-{2-(2-(2-(2-[2-(2-(4-(hexadecanoylamino)-4- carboxybutyrylamino)ethoxy)ethoxy]acetylamino)ethoxy)ethoxy) acetyl)}-[Leu^14,Gln^28,Lys^20]Exendin-4-amide (from UniProt P26349) (peptide) | 0.023
11 | N-ε^20-{2-(2-(2-(2-[2-(2-(4-(hexadecanoylamino)-4- carboxybutyrylamino)ethoxy)ethoxy]acetylamino)ethoxy)ethoxy)acetyl)}- [Gln^12,Leu^14,Gln^28,Lys^20]Exendin-4-amide (from UniProt P26349) (peptide) | 0.021
12 | N-ε^27-2-(2-2-(2-(2-(2-(2-(2-(2- (Octadecanoylamino)ethoxy)ethoxy)acetylamino)ethoxy)ethoxy)acetyl- amino)ethoxy)ethoxy)acetyl[Arg^12,Leu^14,Lys^27,Leu^28]Exendin-4- (1-39)-amide (from UniProt P26349) (peptide) | 0.049
13 | N-ε^27-2-(2-2-(2-(2-(2-(4-(Hexadecanoylamino)-4(S)- carboxybutyrylamino)ethoxy)ethoxy)acetylamino)ethoxy) ethoxy)acetyl[Arg^12,Leu^14,Lys^27,Leu^28]Exendin-4-(1-39)-peptide amide (from UniProt P26349) | 0.093
14 | N-ε^27-2-(2-2-(2-(2-(2-(4-(Octadecanoylamino)-4(S)- carboxybutyrylamino)ethoxy)ethoxy)acetylamino)ethoxy)ethoxy)acetyl [Arg^12,Leu^14,Lys^27,Leu^28]Exendin-4-(1-39)-amide (from UniProt P26349) (peptide) | 0.14
15 | N-ε^27-2-(2-(2-(2-(2-(2-(4-(Octadecanoylamino)-4(S)- carboxybutyrylamino)ethoxy)ethoxy)acetylamino)ethoxy) ethoxy)acetyl[Arg^12,Leu^14,Lys^27,Ala^29]Exendin-4-(1-39)-amide (from UniProt P26349) (peptide) | 0.24
16 | N-ε^27-(2-(2-(2-(2-(2-(2-(2-(2-(2- (Octadecanoylamino)ethoxy)ethoxy)acetylamino)ethoxy)ethoxy)acetyl- amino)ethoxy)ethoxy)acetyl)[Arg^12,Leu^14,Lys^27,Ala^29]Exendin-4-(1- 39)-amide (from UniProt P26349) (peptide) | 0.08
17 | N-ε^27-(2-(2-(2-(2-(2-(2-(17- carboxyheptadecanoylamino)ethoxy)ethoxy)acetylamino)ethoxy) ethoxy)acetyl)[Leu^14,Arg^12,Lys^27]Exendin-4(1-39)amide (from UniProt P26349) (peptide) | 0.35
18 | N-ε^27-(2-(2-(2-(2-(2-(2-(17- carboxyheptadecanoylamino)ethoxy)ethoxy)acetylamino)ethoxy) ethoxy)acetyl[Arg^12,Leu^14,Lys^27,Ala^29]Exendin-4-(1-39)-amide (from UniProt P26349) (peptide) | 5.6
19 | N-ε^27-(2-(2-(2-(2-(2-(2-(17-carboxyheptadecanoylamino-4(S)- carboxybutyrylamino])ethoxy)ethoxy)acetylamino)ethoxy)ethoxy) acetyl)[Leu^14,Arg^12,Lys^27]Exendin-4(1-39)amide (from UniProt P26349) (peptide) | 0.52
20 | N-ε^27-[2-(2-[2-(2-[2-(2-[4-hexadecanoylamino-4(S)- carboxybutyrylamino]ethoxy)ethoxy]acetylamino)ethoxy]ethoxy)acetyl] [Arg^12,Leu^14,Lys^27,Ala^29]Exendin-4-(1-39)-amide (from UniProt P26349) (peptide) | 0.15
21 | N-ε^27-[2-(2-[2-(2-[2-(2-[4-hexadecanoylamino-4(S)- carboxybutyrylamino]ethoxy)ethoxy]acetylamino)ethoxy]ethoxy)acetyl] [Arg^12,Leu^14,Lys^27]Exendin-4(1-39)amide (from UniProt P26349) (peptide) | 0.007
